Experimental data as given in patent US20240165209A1, “PLACENTAL ALKALINE PHOSPHATASE FOR REDUCING THE LOSS OF RED BLOOD CELLS, WHITE BLOOD CELLS, AND PLATELETS IN CHEMOTHERAPY TREATED CANCER PATIENTS” (ZOLTAN LABORATORIES, LLC, priority 2021, published 2024).

Assays:
[1] = amifostine treatment, intravenous route, cancer patients; cited from earlier work
bone marrow MSCs = test: DNA synthesis ([3H]thymidine incorporation) in MSCs; assay type: cell-based, human; details: 20 hours
Description: For the experiment, bone marrow aspirates were taken from normal human adult donors after informed consent. For the preparation of bone marrow MSCs, essentially a widely used technique was used as described earlier by others [Pittenger, M. F., Mackay, A. M., Beck, S. C., et al. (1999) Multilineage potential of adult human mesenchymal stem cells. Science 284, 143-147]. Briefly, nucleated cells were isolated with a pre-prepared commercial density gradient (Lymphoprep, Nycomed, Pharma, Oslo, Norway) and re-suspended in Dulbecco's modified Eagle's medium (DMEM) (GIBCO, Grand Island, NY) supplemented with 10% fetal calf serum (FCS), 50 U/ml of penicillin, and 50 μg/ml of streptomycin (GIBCO). All nucleated cells were plated in 25-cm^2 flasks (BD Falcon, Bedford, MA) at 37° C. in humidified atmosphere containing 5% CO2. After 24 hours, non-adherent cells were removed and cryopreserved in liquid nitrogen until use. The remaining adherent cells were thoroughly washed with Hanks balanced salt solution (HBSS) (GIBCO). Fresh complete culture medium was added and replaced every 3 or 4 days (twice a week). When cells grew to about 80% confluence, they were suspended and harvested by incubating with a ready-made solution containing 0.25% trypsin and 1 mM EDTA (Sigma-Aldrich, St. Louis, MO) for 5 minutes at 37° C.; this cell suspension is designated as passage 1. These cells were further expanded with 1:3-1:5 splitting in 175-cm^2 flasks (BD Falcon). For the determination of DNA synthesis, cells were divided into 12-well plates in the complete medium and let the cells grow to about 60% confluence. After changing the spent medium for fresh complete medium (i.e., containing 10% fetal calf serum), cells were treated for 20 hours with 20-100 μM ATP and/or 200 nM PLAP as well as 50-200 μM Cyp in the absence or presence of 200 nM PLAP. For labeling newly formed DNA, cells received 1,130,000 d.p.m. [^3H] thymidine for the last 4 hours of the treatment period. DNA synthesis was determined as described earlier [She, Q.-B., Mukherjee, J. J., Huang, J.-S., Crilly, K. S. and Kiss, Z. (2000) Growth factor-like effects of placental alkaline phosphatase in human fetus and mouse embryo fibroblasts. FEBS Lett. 469, 163-167]. The data is expressed as d.p.m. [^3H] thymidine incorporated into DNA/well (n=3).

[2] = system: mouse bone marrow-derived hematopoietic stem cells (HSCs); details: 3 days
Procedure: Bone marrow was harvested by flushing bones from female C57/BL/6 mice in Fischer medium (Thermo Fisher Scientific; catalogue no. 21475025) containing 20% horse serum (Hyclone, Logan, UT), 100 Unit/ml penicillin, […] streptomycin (Gibco, BRL), 0.015 fungizone (Gibco, BRL), and 0.1 μM hydrocortisone sodium succinate (SynoPharm; Hamburg, Germany). Pooled stem cells were seeded into 25 cm 3 flasks (10 ml cell suspension) and after 3 days of incubation at 33° C. in 5% CO2 in air in the absence of PLAP, they were plated into 12-well plates and were incubated in the absence (n=8) or presence of 50 μg/ml PLAP (n=8) for additional 3 days.
In a follow up experiment with hematopoietic stem cells, the same incubation medium in 12-well plates contained either no other addition (n=8) or contained 200 μM Cyp without (n=8) or with 50 μg/ml PLAP (n=8) for 3 days.

[3] = purified PLAP; cited from earlier work
[4] = Spectrophotometric assay of PLAP enzyme activity (hydrolysis of 4-nitrophenylphosphate); assay type: biochemical; details: 22° C., pH 9.8, 10 mM 4-nitrophenylphosphate
Description: Human PLAP (Type XXIV, 1020 units of total activity) in a partially purified form was obtained commercially from Sigma-Aldrich. A butanol extraction of placental tissue performed by Sigma-Aldrich to obtain the partially purified material was followed by chromatography steps as described in [Chang, T.-C., Huang, S.-M, Huang, T.-M. and Chang, G.-G. Human placental alkaline phosphatase: An improved purification procedure and kinetic studies. Eur. J. Biochem. 209, 241-247, 1992] to obtain an essentially pure preparation of PLAP as determined by sodium dodecyl sulfate-polyacrylamide gel electrophoresis (SDS-PAGE). The enzyme activity of PLAP was assayed using a spectroscopic method to monitor the hydrolysis of 4-nitrophenylphosphate (as an increase in absorbance at 410 nm) at room temperature (22° C.) as described in [Chang, G.-G., Shiao, M.-S., Lee, K.-R. and Wu, J.-J., Modification of human placental alkaline phosphatase by periodate-oxidized 1,N6-ethenoadenosine monophosphate. Biochem. J., 272, 683-690, 1990]. Activity analysis of 5-10-μg purified enzyme was performed in 1 mL incubation volume containing 50 mM Na2CO3/NaHCO3, 10 mM MgCl2, 10 mM 4-nitrophenylphosphate at pH 9.8. The extinction coefficient of 4-nitrophenol was taken as 1.62×10^4 M^−1 cm^−1. An enzyme activity of 1 U (unit) is defined as 1 μmole substrate hydrolyzed per 1 min at 22° C. at pH 9.8. […]

For `NCCCNCCSP(=O)(O)O` [amifostine], the “patients with reversible clinical hypotension, protracted nausea and vomiting” value [1] is given as 15-20%.

For `Nc1ncnc2c1ncn2[C@@H]1O[C@H](COP(=O)(O)OP(=O)(O)OP(=O)(O)O)[C@@H](O)[C@H]1O` [ATP], the “d.p.m. [^3H] thymidine incorporated into DNA/well” value (bone marrow MSCs; ATP 20 μM, no PLAP) was 70,738 ± 1,367 d.p.m, the “d.p.m. [^3H] thymidine incorporated into DNA/well” value (bone marrow MSCs; ATP 50 μM, no PLAP) was 55,808 ± 1,480 d.p.m and the “d.p.m. [^3H] thymidine incorporated into DNA/well” value (bone marrow MSCs; ATP 100 μM, no PLAP) was 38,601 ± 1,940 d.p.m.

B1: PLAP: highly purified native placental alkaline phosphatase derived from human placenta via conventional purification methods (protein, UniProt P05187 23-506, looked up)
Alkaline phosphatase, …: IIPVEEENPDFWNREAAEALGAAKKLQPAQTAAKNLIIFLGDGMGVSTVTAARILKGQKKDKLGPEIPLAMDRFPYVALSKTYNVDKHVPDSGATATAYLCGVKGNFQTIGLSAAARFNQCNTTRGNEVISVMNRAKKAGKSVGVVTTTRVQHASPAGTYAHTVNRNWYSDADVPASARQEGCQDIATQLISNMDIDVILGGGRKYMFRMGTPDPEYPDDYSQGGTRLDGKNLVQEWLAKRQGARYVWNRTELMQASLDPSVTHLMGLFEPGDMKYEIHRDSTLDPSLMEMTEAALRLLSRNPRGFFLFVEGGRIDHGHHESRAYRALTETIMFDDAIERAGQLTSEEDTLSLVTADHSHVFSFGGYPLRGSSIFGLAPGKARDRKAYTVLLYGNGPGYVLKDGARPDVTESESGSPEYRQQSAVPLDEETHAGEDVAVFARGPQAHLVHGVQEQTFIAHVMAFAACLEPYTACDLAPPAGTTD
In the case of B1, the “d.p.m. [^3H] thymidine incorporated into DNA/well” value (bone marrow MSCs; PLAP 200 nM + ATP 20 μM) is reported as 90,708 ± 2,518 d.p.m, the “d.p.m. [^3H] thymidine incorporated into DNA/well” value (bone marrow MSCs; PLAP 200 nM + ATP 50 μM) is reported as 84,740 ± 3,231 d.p.m and the “d.p.m. [^3H] thymidine incorporated into DNA/well” value (bone marrow MSCs; PLAP 200 nM + ATP 100 μM) is reported as 80,916 ± 2,252 d.p.m. The “d.p.m. [^3H] thymidine incorporated into DNA/well” value (bone marrow MSCs; PLAP 200 nM + Cyp 50 μM) was 81,887 ± 3,173 d.p.m, the “d.p.m. [^3H] thymidine incorporated into DNA/well” value (bone marrow MSCs; PLAP 200 nM + Cyp 200 μM) was 74,798 ± 2,408 d.p.m and the “d.p.m. [^3H] thymidine incorporated into DNA/well” value (bone marrow MSCs; PLAP 200 nM, no ATP) was 89,865 ± 2,021 d.p.m. For the same molecule, the “change of the number of hematopoietic stem cells” value ([2]; 50 μg/ml PLAP, no Cyp) was “did not significantly change”, the “decrease of the number of cells by Cyp” value ([2]; 200 μM Cyp, presence of 50 μg/ml PLAP) was 10% and the “half-life time in human circulation” value [3] was “about 7 days”. For the same molecule, the “specific activity of purified PLAP” value [4] was 685 Units per mg protein.
